{
  "source": "paper PMC11044841",
  "key": {"PABP1": {"target": "PABP1", "assay": "mass spectrometry of G3BP1-GFP interactome", "conditions": "HEK293T G3BP1/2 DKO cells; read off a plot"}, "P121A": {"target": "P121A", "assay": "mass spectrometry of G3BP1-GFP interactome", "conditions": "HEK293T G3BP1/2 DKO cells; read off a plot"}, "NU205": {"target": "NU205", "assay": "mass spectrometry of G3BP1-GFP interactome", "conditions": "HEK293T G3BP1/2 DKO cells; read off a plot"}, "IMB1": {"target": "IMB1", "assay": "mass spectrometry of G3BP1-GFP interactome", "conditions": "HEK293T G3BP1/2 DKO cells; read off a plot"}, "RS3": {"target": "RS3", "assay": "mass spectrometry of G3BP1-GFP interactome", "conditions": "HEK293T G3BP1/2 DKO cells; read off a plot"}, "RBP2": {"target": "RBP2", "assay": "mass spectrometry of G3BP1-GFP interactome", "conditions": "HEK293T G3BP1/2 DKO cells; read off a plot"}, "NUP93": {"target": "NUP93", "assay": "mass spectrometry of G3BP1-GFP interactome", "conditions": "HEK293T G3BP1/2 DKO cells; read off a plot"}, "NUFP2": {"target": "NUFP2", "assay": "mass spectrometry of G3BP1-GFP interactome", "conditions": "HEK293T G3BP1/2 DKO cells; read off a plot"}, "PABP4": {"target": "PABP4", "assay": "mass spectrometry of G3BP1-GFP interactome", "conditions": "HEK293T G3BP1/2 DKO cells; read off a plot"}, "P121C": {"target": "P121C", "assay": "mass spectrometry of G3BP1-GFP interactome", "conditions": "HEK293T G3BP1/2 DKO cells; read off a plot"}, "PRC2C": {"target": "PRC2C", "assay": "mass spectrometry of G3BP1-GFP interactome", "conditions": "HEK293T G3BP1/2 DKO cells; read off a plot"}, "DDX6": {"target": "DDX6", "assay": "mass spectrometry of G3BP1-GFP interactome", "conditions": "HEK293T G3BP1/2 DKO cells; read off a plot"}, "TRAP1": {"target": "TRAP1", "assay": "mass spectrometry of G3BP1-GFP interactome", "conditions": "HEK293T G3BP1/2 DKO cells; read off a plot"}, "[1]": {"target": "GST-NTF2L (GST-tagged NTF2-like domain of G3BP1) (human)", "assay": "SPR"}},
  "data": [
    {"substance": "G3BP1-EGFP (from UniProt Q13283) F33W", "values": [
      {"measurement": "other: Log2(fold change)", "setting": "PABP1", "value": -4.1},
      {"measurement": "other: Log2(fold change)", "setting": "P121A", "value": 2.9},
      {"measurement": "other: Log2(fold change)", "setting": "NU205", "value": 8.7},
      {"measurement": "other: Log2(fold change)", "setting": "IMB1", "value": 6.7},
      {"measurement": "other: Log2(fold change)", "setting": "RS3", "value": -6.4},
      {"measurement": "other: Log2(fold change)", "setting": "RBP2", "value": 8.9},
      {"measurement": "other: Log2(fold change)", "setting": "NUP93", "value": 8.4},
      {"measurement": "other: Log2(fold change)", "setting": "NUFP2", "value": -9.7},
      {"measurement": "other: Log2(fold change)", "setting": "PABP4", "value": -8.9},
      {"measurement": "other: Log2(fold change)", "setting": "P121C", "value": 2.5}
    ]},
    {"substance": "G3BP1-EGFP (from UniProt Q13283) F112A", "values": [
      {"measurement": "other: Log2(fold change)", "setting": "PRC2C", "value": 5.8},
      {"measurement": "other: Log2(fold change)", "setting": "DDX6", "value": -2.7}
    ]},
    {"substance": "G3BP1-EGFP (from UniProt Q13283) F124W", "values": [
      {"measurement": "other: Log2(fold change)", "setting": "TRAP1", "value": 6},
      {"measurement": "other: Log2(fold change)", "setting": "IMB1", "value": 6.2}
    ]},
    {"substance": "G3BP1-EGFP (from UniProt Q13283) V11A", "values": [
      {"measurement": "other: Log2(fold change)", "setting": "DDX6", "value": -2.3}
    ]},
    {"substance": "N-WT (1–25) peptide (from UniProt P0DTC9 1-25)", "values": [
      {"measurement": "Kd", "setting": "[1]", "value": 1.14, "unit": "µM"}
    ]}
  ]
}
